Results taken from US20230280343A1.

Target: p300 (UniProt Q09472)
Experiment: not stated; comparator to the H-MAP-1 ELISA

Chain of p300 (Q09472 323-423 limits assumed): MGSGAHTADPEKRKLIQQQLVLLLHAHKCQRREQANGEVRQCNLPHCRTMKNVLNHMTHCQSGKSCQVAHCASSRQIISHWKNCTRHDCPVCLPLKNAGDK

Substance: native HIF1α protein (from UniProt Q16665 786-826)
- Kd: 0.38 nM
